Reference: PMC12872393, “NCOA4 initiates ferritinophagy by avidly binding GATE16 using two short linear interaction motifs” (Life Science Alliance, 2026)
Numbering of substitutions follows the chain as printed. One block for each binder: values may come before it.

Target: (GST-GATE16)2, P60520
Assay: BLI
Settings: chain shown with the change; 5 µM (GST-GATE16)2; NCOA4 construct immobilized to the probe; parent: est. 0.105; read off a plot

Sequence of (GST-GATE16)2, P60520 (P60520 whole entry): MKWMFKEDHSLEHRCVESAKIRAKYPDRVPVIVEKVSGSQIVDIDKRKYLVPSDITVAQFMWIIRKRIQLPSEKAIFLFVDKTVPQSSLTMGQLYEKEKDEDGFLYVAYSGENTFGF

response: 0.026 nm
B1: biotinylated AviTag-His6-NCOA4^383−522-MBP, Q13772 486F:A (protein)
chain: SMVTEDWLVQNHQDPCKVEEVCRANEPCTSFAECVCDENCEKEALYKWLLKKEGKDKNGMPVEPKPEPEKHKDSLNMWLCPRKEVIEQTKAPKAMTPSRIADSAQVIKNSPLSEWLIRPPYKEGSPKEVPGTEDRAGKQK

response: 0.056 nm
B2: biotinylated AviTag-His6-NCOA4^383−522-MBP, Q13772 413F:A (protein)
chain: B1 chain with F31A, A104F
